Results: US8241627B2, “Modified polypeptides stabilized in a desired conformation and methods for producing same” (The Center for Blood Research, Inc., priority 2000, dated 2012)

Key:
ICAM-1 [1] = biological target: T1, ICAM-1 (Homo sapiens, UniProt P05362); assay: BIAcore binding of soluble αL I-domains to ICAM-1; details: for Kon, interaction of αL I-domains with ICAM-1: calculated by Koff/KD; for Koff, interaction of αL I-domains with ICAM-1: curve fitting of dissociation phase, 1:1 binding model
Experimental: Briefly, recombinant mutant αL I-domain stabilized in the open conformation (K287C/K294C), or recombinant wild-type αL I-domain from amino acid residue G128 to Y307, were cloned into pET11b (Novagen) and expressed in E. coli induced with 1 mM IPTG for 4 hours. The recombinant proteins were purified from inclusion bodies by solubilization of inclusion bodies in 6M guanidine HCl and were refolded by dilution in the presence of 0.1 mM Cu^2+/phenanthrolin to enhance formation of disulfide bonds. Protein was concentrated by ammonium sulfate precipitation, dialyzed, and purified over a monoQ ion-exchange column. […] The recombinant proteins were then purified by gel filtration and concentrated by Centriprep. For BIAcore™ analysis, recombinant ICAM-1, ICAM-2 and ICAM-3 Fc chimeras were immobilized on the BIAcore™ sensor chip by an amine-coupling method. Recombinant αL I-domains were flowed in, and BIAcore™ assays were performed with Tris-buffered saline supplemented with 1 mM MgCl2 or 2 mM EDTA, at a flow rate of 10 μl/minute at 25° C.
Target sequence in this assay (P05362 28-480 limits assumed): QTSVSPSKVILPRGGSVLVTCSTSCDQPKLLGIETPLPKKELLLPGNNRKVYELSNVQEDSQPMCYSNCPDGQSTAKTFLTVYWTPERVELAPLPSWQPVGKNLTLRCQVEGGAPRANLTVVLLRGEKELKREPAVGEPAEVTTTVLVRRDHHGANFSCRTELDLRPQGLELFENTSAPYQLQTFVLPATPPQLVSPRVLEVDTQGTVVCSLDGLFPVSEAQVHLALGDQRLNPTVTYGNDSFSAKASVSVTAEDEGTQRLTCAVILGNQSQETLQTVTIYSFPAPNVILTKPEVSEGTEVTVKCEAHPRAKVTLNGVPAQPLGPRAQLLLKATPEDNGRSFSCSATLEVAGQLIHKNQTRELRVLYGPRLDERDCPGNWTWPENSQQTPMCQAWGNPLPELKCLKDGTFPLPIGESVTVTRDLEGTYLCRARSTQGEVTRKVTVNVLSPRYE

ICAM-1 [2] = biological target: T1, ICAM-1; assay: Binding of LFA-1 or isolated I-domain transfectants to immobilized ICAM-1; type: cell-based; set-up: ICAM-1 was purified from human tonsil; from tissue; host or cells: human tonsil; details: for binding of 293T transient transfectants to immobilized ICAM-1 with activating mAb CBRLFA-1/2: CBRLFA-1/2 10 μg/ml; for binding of 293T transient transfectants to immobilized ICAM-1: no activating antibody
Experimental: Clones of the transfectants that expressed similar levels of cell surface LFA-1, as determined by flow cytometry using monoclonal antibody TS2/4 (FIG. 3B), were tested for their ability to bind to immobilized ICAM-1, as previously described (Lu, C and Springer, T A (1997) J Immunol 159:268-278).
Briefly, ICAM-1 was purified from human tonsil, and coated to 96-well plates as described previously (Lu, C and Springer T A, (1997) J Immunol 159:268-278). Cells were labeled with a florescence dye 2′,7′-bis-(carboxyethyl)-5(and-6)-carboxyfluorescein, acetoxymethyl ester (BCECF-AM), and resuspended to 1×10^6/ml in L15/FBS. 50 μl cell suspension was mixed in ICAM-1 coated wells with an equal volume of L15/FBS in the absence or presence of monoclonal antibody (CBRLFA-1/2, 10 μg/ml). Monoclonal antibodies were used at final concentration of 1:20 hybridoma supernatant, 1:200 ascites, or μg/ml purified IgG. For testing the effect of divalent cations, BCECF-AM-labeled cells were washed 2× with TS buffer, pH7.5 (20 mM Tris, pH 7.5, 150 mMNaCl) containing 5 mM EDTA, followed by 2 washes with TS buffer, pH7.5. Cells were then resuspended to 5×10^5/ml in the TS buffer, pH7.5 supplemented with 1 mM MgCl2/CaCl2, MgCl2, MnCl2 mM EDTA, and 100 μl cell suspension was added to ICAM-1 coated wells. After incubation at 37° C. for 30 minutes, unbound cells were washed off on a Microplate Autowasher (Bio-Tek Instruments, Winooski, Vt.). The fluorescence content of total input cells and the bound cells in each well was quantitated on a Fluorescent Concentration Analyzer (IDEXX, Westbrook, Me.). The bound cells were expressed as a percentage of total input cells per sample well.
For generating stable K562 transfectants that express the I-domain on the surface, 20 μg of SspI-linearized pcDNA3.1/Hygro(+) containing the sequences encoding the I domain and the PDGFR transmembrane domain was used to transfect K562 cells by electroporation as described above. Transfectants were selected for resistance to 100 μg/ml hygromycin B, and were further subcloned by cell sorting and limiting dilution; clones that expressed similar levels of surface wild-type and mutant I domain-PDGFR were selected for functional studies. Stable cell lines were maintained in RPMI medium 1640 supplemented with 10% FBS and 100 μg/ml hygromycin B. Cell surface expression of the isolated I-domains was determined by flow cytometry using antibody TS1/22 to the I-domain (FIG. 7). Two clones from each transfectant were selected and tested for binding to immobilized ICAM-1, and similar results were obtained with each of the two clones (FIG. 8A).
If the constitutive ligand binding activity of mutant K287C/K294C is due to the formation of a disulfide bond between the introduced C287 and C294, disruption of the disulfide bond with a reducing agent would abolish ligand binding ability of the mutant. Accordingly, the transfectants were treated with the reducing agent DTT (10 mM) in L15/FBS containing Mg^2+ and Ca^2+, and the ability of transfectants to bind to ICAM-1 was assessed.
Furthermore, the effect of divalent cations on ligand binding of the isolated I-domains expressed on the surface of K562 transfectants was tested. The binding reactions were performed in HEPES/NaCl/glucose (20 mM HEPES, pH 7.5, 140 mM NaCl, 2 mg/ml glucose) supplemented with 1 mM […], 1 mM Mg^2+, or 1 mM EDTA.
Target sequence in this assay (P05362 28-532): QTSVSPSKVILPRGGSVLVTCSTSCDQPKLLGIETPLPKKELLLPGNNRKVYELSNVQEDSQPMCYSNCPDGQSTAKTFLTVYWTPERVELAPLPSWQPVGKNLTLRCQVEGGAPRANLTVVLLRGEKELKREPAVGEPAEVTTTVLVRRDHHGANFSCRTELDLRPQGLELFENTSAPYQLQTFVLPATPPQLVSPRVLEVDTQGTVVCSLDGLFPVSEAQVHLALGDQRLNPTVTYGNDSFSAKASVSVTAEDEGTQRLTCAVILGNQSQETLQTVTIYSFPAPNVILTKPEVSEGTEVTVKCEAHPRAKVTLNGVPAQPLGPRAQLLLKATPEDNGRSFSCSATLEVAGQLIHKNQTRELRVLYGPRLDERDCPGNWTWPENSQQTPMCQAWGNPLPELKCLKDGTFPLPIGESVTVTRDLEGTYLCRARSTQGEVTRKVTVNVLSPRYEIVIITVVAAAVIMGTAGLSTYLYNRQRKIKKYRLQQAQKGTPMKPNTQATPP

| Kon, interaction of αL I-domains with ICAM-1 (ICAM-1 [1]) [M⁻¹ s⁻¹] | Koff, interaction of αL I-domains with ICAM-1 (ICAM-1 [1]) [s⁻¹] | binding of 293T transient transfectants to immobilized ICAM-1 with activating mAb CBRLFA-1/2 (ICAM-1 [2]) | binding of 293T transient transfectants to immobilized ICAM-1 (ICAM-1 [2]) | Molecule | also measured |
| --- | --- | --- | --- | --- | --- |
| 128000 | 0.0459 |  |  | E284C/E301C: high affinity open αL I-domain mutant, E284 and E301 replaced by cysteines (protein) GNVDLVFLFDGSMSLQPDEFQKILDFMKDVMKKLSNTSYQFAAVQFSTSYKTEFDFSDYVKRKDPDALLKHVKHMLLLTNTFGAINYVATEVFREELGARPDATKVLIIITDGEATDSGNIDAAKDIIRYIIGIGKHFQTKESQETLHKFASKPASCFVKILDTFEKLKDLFTCLQKKIY | affinity compared with high-affinity open αL I-domain K287C/K294C (times lower) (ICAM-1 [1]; ICAM-1, soluble I-domains): nearly comparable |
| 136000 | 0.513 |  |  | L161C/F299C: intermediate-affinity open αL I-domain mutant, cysteines for L161 and F299 (protein) GNVDLVFLFDGSMSLQPDEFQKILDFMKDVMKKCSNTSYQFAAVQFSTSYKTEFDFSDYVKRKDPDALLKHVKHMLLLTNTFGAINYVATEVFREELGARPDATKVLIIITDGEATDSGNIDAAKDIIRYIIGIGKHFQTKESQETLHKFASKPASEFVKILDTFEKLKDLCTELQKKIY |  |
| 135000 | 0.65 |  |  | L161C/T300C: intermediate-affinity open αL I-domain mutant, cysteines for L161 and T300 (protein) GNVDLVFLFDGSMSLQPDEFQKILDFMKDVMKKCSNTSYQFAAVQFSTSYKTEFDFSDYVKRKDPDALLKHVKHMLLLTNTFGAINYVATEVFREELGARPDATKVLIIITDGEATDSGNIDAAKDIIRYIIGIGKHFQTKESQETLHKFASKPASEFVKILDTFEKLKDLFCELQKKIY |  |

The remaining lines, values behind:

| Molecule | Kon, interaction of αL I-domains with ICAM-1 (ICAM-1 [1]) [M⁻¹ s⁻¹] | Koff, interaction of αL I-domains with ICAM-1 (ICAM-1 [1]) [s⁻¹] | binding of 293T transient transfectants to immobilized ICAM-1 with activating mAb CBRLFA-1/2 (ICAM-1 [2]) | binding of 293T transient transfectants to immobilized ICAM-1 (ICAM-1 [2]) | also measured |
| --- | --- | --- | --- | --- | --- |
| L289C/K294C: low affinity closed αL I-domain mutant, cysteines for L289 and K294 (protein) GNVDLVFLFDGSMSLQPDEFQKILDFMKDVMKKLSNTSYQFAAVQFSTSYKTEFDFSDYVKRKDPDALLKHVKHMLLLTNTFGAINYVATEVFREELGARPDATKVLIIITDGEATDSGNIDAAKDIIRYIIGIGKHFQTKESQETLHKFASKPASEFVKICDTFECLKDLFTELQKKIY | 2110 | 2.84 | not able to activate binding | did not bind | binding of K562 cells expressing isolated I-domains to immobilized ICAM-1 (ICAM-1 [2]; I-domain on cell surface via PDGFR transmembrane domain): did not bind; effect of Mn2+ or Mg2+ on ligand binding of isolated I-domains (ICAM-1 [2]; K562, 1 mM Mn2+ or Mg2+): did not activate ligand binding; binding of K562 stable transfectants to immobilized ICAM-1 with activating mAb CBRLFA-1/2 (ICAM-1 [2]; K562, CBRLFA-1/2 10 μg/ml): did not binding to ICAM-1; effect of Mn2+ and Mg2+ on binding of K562 transfectants to ICAM-1 (ICAM-1 [2]; K562, intact LFA-1, Mn2+ / Mg2+): did not increase binding; binding of K562 stable transfectants to immobilized ICAM-1 (ICAM-1 [2]; K562, no activating antibody): did not binding to ICAM-1; effect of DTT treatment on binding to ICAM-1 (ICAM-1 [2]; K562 transfectants, DTT 10 mM in L15/FBS): did not affect binding |
| K160C/F299C: intermediate-affinity open αL I-domain mutant, cysteines for K160 and F299 (protein) GNVDLVFLFDGSMSLQPDEFQKILDFMKDVMKCLSNTSYQFAAVQFSTSYKTEFDFSDYVKRKDPDALLKHVKHMLLLTNTFGAINYVATEVFREELGARPDATKVLIIITDGEATDSGNIDAAKDIIRYIIGIGKHFQTKESQETLHKFASKPASEFVKILDTFEKLKDLCTELQKKIY | 153000 | 0.67 |  |  |  |
| K287C: single cysteine substitution mutant of LFA-1 αL (protein, UniProt P20701 26-1170, looked up, variant K287C) Integrin alpha-L: YNLDVRGARSFSPPRAGRHFGYRVLQVGNGVIVGAPGEGNSTGSLYQCQSGTGHCLPVTLRGSNYTSKYLGMTLATDPTDGSILACDPGLSRTCDQNTYLSGLCYLFRQNLQGPMLQGRPGFQECIKGNVDLVFLFDGSMSLQPDEFQKILDFMKDVMKKLSNTSYQFAAVQFSTSYKTEFDFSDYVKRKDPDALLKHVKHMLLLTNTFGAINYVATEVFREELGARPDATKVLIIITDGEATDSGNIDAAKDIIRYIIGIGKHFQTKESQETLHKFASKPASEFVCILDTFEKLKDLFTELQKKIYVIEGTSKQDLTSFNMELSSSGISADLSRGHAVVGAVGAKDWAGGFLDLKADLQDDTFIGNEPLTPEVRAGYLGYTVTWLPSRQKTSLLASGAPRYQHMGRVLLFQEPQGGGHWSQVQTIHGTQIGSYFGGELCGVDVDQDGETELLLIGAPLFYGEQRGGRVFIYQRRQLGFEEVSELQGDPGYPLGRFGEAITALTDINGDGLVDVAVGAPLEEQGAVYIFNGRHGGLSPQPSQRIEGTQVLSGIQWFGRSIHGVKDLEGDGLADVAVGAESQMIVLSSRPVVDMVTLMSFSPAEIPVHEVECSYSTSNKMKEGVNITICFQIKSLIPQFQGRLVANLTYTLQLDGHRTRRRGLFPGGRHELRRNIAVTTSMSCTDFSFHFPVCVQDLISPINVSLNFSLWEEEGTPRDQRAQGKDIPPILRPSLHSETWEIPFEKNCGEDKKCEANLRVSFSPARSRALRLTAFASLSVELSLSNLEEDAYWVQLDLHFPPGLSFRKVEMLKPHSQIPVSCEELPEESRLLSRALSCNVSSPIFKAGHSVALQMMFNTLVNSSWGDSVELHANVTCNNEDSDLLEDNSATTIIPILYPINILIQDQEDSTLYVSFTPKGPKIHQVKHMYQVRIQPSIHDHNIPTLEAVVGVPQPPSEGPITHQWSVQMEPPVPCHYEDLERLPDAAEPCLPGALFRCPVVFRQEILVQVIGTLELVGEIEASSMFSLCSSLSISFNSSKHFHLYGSNASLAQVVMKVDVVYEKQMLYLYVLSGIGGLLLLLLIFIVLYKVGFFKRNLKEKMEAGRGVPNGIPAEDSEQLASGQEAGDPGCLKPLHEKDSESGGGKD |  |  | increased | reduced binding |  |
